Our source for the Km values is paper PMC6154995, “Heme-dependent Inactivation of 5-Aminolevulinate Synthase from Caulobacter crescentus” (Scientific Reports, 2018).

The series concerns CC(C)(COP(=O)(O)OP(=O)(O)OC[C@H]1O[C@@H](n2cnc3c(N)ncnc32)[C@H](O)[C@@H]1OP(=O)(O)O)[C@@H](O)C(=O)NCCC(=O)NCCSC(=O)CCC(=O)O. The series is described as follows: purified protein. As to conditions: PLP.

For “5-aminolevulinate synthase (cALAS) (Caulobacter vibrioides CB15)”, the Michaelis constant (Km) (commonly the concentration of substrate that gives half-maximal velocity) was 2.42 ± 0.32 µM.
